System: hemagglutinin epitope-tagged Del301-303 human alpha-2B adrenergic receptor

## GRK2 (βARK1)
  agonist-promoted phosphorylation relative to wild-type: the Del301-303 receptor displayed -56% of wild-type phosphorylation
  basal phosphorylation of the receptor: Basal phosphorylation was equivalent between the two receptors.
